In paper PMC12403594, “On the self-assembly of αB-crystallin” (Soft Matter, 2025):

Columns and labels:
[1] = target: the molecule itself; experiment: static light scattering; day 7 after sample preparation; 10-69 μM αBC; 20 mM sodium phosphate, 0.2 mM EDTA, 0.02% NaN3, pH 8.0; 25 °C; aggregation number from the slope of the excess Rayleigh ratio at q = 0 against concentration
[2] = target: the molecule itself; experiment: static light scattering; day 0 (day of thawing and dilution); 10-69 μM αBC; 20 mM sodium phosphate, 0.2 mM EDTA, 0.02% NaN3, pH 8.0; 25 °C; aggregation number from the slope of the excess Rayleigh ratio at q = 0 against concentration

B1: Recombinant human αB-crystallin (natural protein)
chain: MDIAIHHPWIRRPFFPFHSPSRLFDQFFGEHLLESDLFPTSTSLSPFYLRPPSFLRAPSWFDTGLSEMRLEKDRFSVNLDVKHFSPEELKVKVLGDVIEVHGKHEERQDEHGFISREFHRKYRIPADVDPLTITSSLSSDGVLTVNGPRKQVSGPERTIPITREEKPAVTAAPKK
notes: αB-crystallin, human; expressed from a synthetic gene with E. coli-optimized codons in a Pet3a vector; No tag is mentioned; The introduction gives 175 residues for the protein
In the case of B1, the “stoichiometry N” value [1] is reported as 19 and the “stoichiometry N” value [2] is reported as 24.
